Results published in US20080058278A1, “ATTENUATION OF HYPEROXIA-INDUCED CELL DEATH WITH MITOCHONDRIAL ALDEHYDE DEHYDROGENASE” (THE CHILDREN'S MERCY HOSPITAL, priority 2006, published 2008).

T1: mtALDH (Homo sapiens, UniProt P05091)
T1 construct: endogenous in cells; host or cells: A549 human lung type II epithelial cells (isolated mitochondrial protein or cell homogenate supernatant)
T1 sequence (P05091 18-517): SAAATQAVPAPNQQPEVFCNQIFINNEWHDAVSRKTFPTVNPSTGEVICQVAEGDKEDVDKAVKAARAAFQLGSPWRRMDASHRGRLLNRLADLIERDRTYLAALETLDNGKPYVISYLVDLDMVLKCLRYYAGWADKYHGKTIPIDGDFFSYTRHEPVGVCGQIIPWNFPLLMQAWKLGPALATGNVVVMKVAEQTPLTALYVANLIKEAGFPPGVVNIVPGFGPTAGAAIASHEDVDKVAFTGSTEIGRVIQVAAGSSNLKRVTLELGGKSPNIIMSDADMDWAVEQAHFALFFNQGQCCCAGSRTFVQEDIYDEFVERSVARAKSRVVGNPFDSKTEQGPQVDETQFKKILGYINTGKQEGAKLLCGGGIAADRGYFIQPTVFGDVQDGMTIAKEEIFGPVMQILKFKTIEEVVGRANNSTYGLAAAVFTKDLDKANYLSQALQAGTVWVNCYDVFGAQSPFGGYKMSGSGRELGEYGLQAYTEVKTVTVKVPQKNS

B1: mtALDH: human mitochondrial aldehyde dehydrogenase (SEQ ID NO. 3) overexpressed as V5 fusion protein in A549 cells by pcDNA3.1 plasmid transfection (protein, listed as Homo sapiens)
chain: MLRAAARFGPRLGRRLLSAAATQAVPAPNQQPEVFCNQIFINNEWHDAVSRKTFPTVNPSTGEVICQVAEGDKEDVDKAVKAARAAFQLGSPWRRMDASHRGRLLNRLADLIERDRTYLAALETLDNGKPYVISYLVDLDMVLKCLRYYAGWADKYHGKTIPIDGDFFSYTRHEPVGVCGQIIPWNFPLLMQAWKLGPALATGNVVVMKVAEQTPLTALYVANLIKEAGFPPGVVNIVPGFGPTAGAAIASHEDVDKVAFTGSTEIGRVIQVAAGSSNLKRVTLELGGKSPNIIMSDADMDWAVEQAHFALFFNQGQCCCAGSRTFVQEDIYDEFVERSVARAKSRVVGNPFDSKTEQGPQVDETQFKKILGYINTGKQEGAKLLCGGGIAADRGYFIQPTVFGDVQDGMTIAKEEIFGPVMQILKFKTIEEVVGRANNSTYGLAAAVFTKDLDKANYLSQALQAGTVWVNCYDVFGAQSPFGGYKMSGSGRELGEYGLQAYTEVKTVTVKVPQKNS
modifications: V5 tag

Legend:
Neo-A549 cells [1] = test: Necrotic cell death, trypan blue exclusion assay; type: cell-based, human; conditions: 10 μM inhibitor pretreatment 30 minutes
Text: (§1) The cultured media were collected and saved.

mtALDH-A549 cells [2] = test: Necrotic cell death, trypan blue exclusion assay; type: cell-based, human; conditions: for necrotic cell death (percentage of stained cells to total cells): mtALDH-A549 cells, 10 μM inhibitor pretreatment 30 minutes; for necrotic cell death, trypan blue exclusion: mtALDH overexpression (mtALDH-A549)
Text: (§2) Plasmid Construction and Transfection: For human mt ALDH plasmid construction, full-length human mtALDH cDNA without stop codon was amplified from a human lung cDNA library (Clontech, Mountain View Calif.) by RT-PCR using following primers, sense: […] (SEQ ID NO. 1), antisense: […] (SEQ ID NO. 2). The resulting human mtALDH cDNA was subcloned into the plasmid vector pcDNA3.1 (Invitrogen, Carlsbad, Calif.). The mtALDH sequence (SEQ ID NO. 3) was confirmed by direct nucleotide sequencing. mtALDH-pcDNA3 and empty pcDNA3.1 plasmids were transfected into A549 cells using LipofectAMINE (Invitrogen, Carlsbad, Calif.). The transfected cells were then selected by G418 sulfate at 500 μg/mL for ten days. A single clone was selected by limited dilution and mtALDH protein expression was confirmed by Western blotting with anti-V5 antibody (Invitrogen, Carlsbad, Calif.).
as §1

mtALDH-A549 cells [3] = type: cell-based; conditions: 10 μM inhibitor pretreatment 30 minutes, 48-hour hyperoxic exposure (95% O2, 5% CO2)
Text: as §2, §1

Neo-A549 cells [4] = conditions: 10 μM inhibitor pretreatment 30 minutes, 48-hour hyperoxic exposure (95% O2, 5% CO2)
Experimental: Cell culture and Cell Treatment: A549 cells were purchased from American Type culture collection (ATCC, Manassas, Va.) and grown in Dulbecco's Modified Eagle Medium (DMEM) containing 10% fetal bovine serum, 50 μg/mL penicillin and 50 μg/mL streptomycin in 5% CO2 at 37° C. Normoxic exposure of the cells was conducted under room air and 5% CO2 in a humidified cell culture incubator at 37° C. Hyperoxic exposure of the cells was conducted in a humidified chamber (Billups and Rothenberg, Del Mar, Calif.) and the chamber was flushed with 95% O2, 5% CO2 (hyperoxia) at a flow rate of 10 liters per minute for 15 minutes prior to incubation at 37° c. In U0126 and LY294002 pretreatment experiments, cells were treated with or without 10 μM U0216 or LY294002 (two well-known inhibitors) for 30 minutes prior to normoxic or hyperoxic exposure.
The lactate dehydrogenase (LDH) assay kit was from Biovision (Mountain View, Calif.) and LDH activity was measured per manufacture's instruction. Briefly, cells were incubated in an incubator (5% CO2, 37° C.) for the appropriate time of treatment. The cultured media were collected and saved. […] The absorbance of all samples at 490 nm was measured using a microplate reader. The cytotoxicity was determined by the percentage of LDH activity in cultured medium over combined LDH activities of the cultured medium and cell lysate.

mtALDH-A549 cells [5] = test: Apoptotic cell death, Annexin V staining and flow cytometry; type: cell-based, human; conditions: mtALDH overexpression (mtALDH-A549), 48-hour hyperoxic treatment; Neo-A549 0.84%
Experimental: Analysis of Apoptotic Cells: The Apoptosis Detection kit was from R&D System (Minneapolis, Minn.). Treated cells were trypsinized and collected by centrifugation at 500×g for 5 minutes. Cells were washed with cold PBS once and resuspended in 100 uL binding buffer containing 10 mM HEPES pH 7.4, 150 mM NaCl, 5 mM KCl, 1 mM MgCl2 and 1.8 mM CaCl2. Cells were stained with Annexin V-FITC (0.05 μg per sample) for 15 minutes according to manufacturer's instructions. The stained cells were then subjected to flow cytometry analysis.

mtALDH-A549 cells [6] = test: Intracellular and mitochondrial ROS levels by flow cytometry; type: cell-based, human
Experimental: Assessment of Intracellular and Mitochondrial ROS Levels: After normoxic or hyperoxic treatment, cultured cells were stained with 10 μM of 2′,7′-dicholordihydrofluorescein diacetate, succinimidyl ester (OxyBURST® Green H2DCFDA (2′,7′-dichlorodihydrofluorescin diacetate)), SE, Molecular Probe, Oreg.) for 10 minutes. The stained cells were washed three times with PBS and then trypsinized with 0.025% trypsin and 0.05% EDTA. The resuspended cells were subjected to fluorescent intensity measured by flow cytometry. For mitochondria-derived ROS measurement, cells were incubated with 10 μM dihydrorhodamaine 123 (Molecular Probe, OR) for 15 minutes. The stained cells were washed three times with PBS and then trypsinized with 0.25% trypsin, 0.05% EDTA. The resuspended cells were subjected to rhodamine 123 fluorescent intensity measurement by flow cytometry. Statistical Analysis: The results are expressed as the mean±SEM of data obtained from two or more experiments; or where appropriate, as mean±SD. Statistical analysis was performed using the student t test for paired comparisons and ANOVA for multiple comparisons. A value of p<0.05 was considered significant.

ERK = ERK phosphorylation, Western blotting; type: cell-based, human; conditions: 48-hour normoxic conditions, normalized by total ERK
Experimental: Western Blotting Analysis: Antibodies were purchased from Cell Signaling Technology (Beverly, Mass.) and they were used according to manufacturer's instructions. Cultured cells after treatment were washed with cold PBS three times, and the 300 μl of sample lysis buffer (62.5 mM Tris-HCl pH 6.8, 2% w/v SDS, 10% glycerol, 200 mM dithiothreitol, and protease cocktails) was added to each plate. Cell lysates were centrifuged at 12,000×g for 10 minutes. The supernatants were saved for analysis. Protein concentration was determined by bicinchoninic acid (BCA) protein assay kit (Sigma, St. Louis, Mo.). Samples containing 50 μg of protein in loading sample buffer were boiled for 5 minutes and loaded on 12% Tris-Glycine SDS-PAGE gels. Gels were run at 120 V for approximately two hours and transferred overnight at 20 V to nitrocellulose membranes. Membranes were incubated with the blocking buffer containing 5% non-fat mile in PBST (0.1% Tween-20 in PBS) for one hour, washed with PBST and incubated overnight with the primary antibody against either phosphorylated ERK or phosphorylated Akt (Ser473). […] Phosphorylated ERK and phosphorylated Akt protein band intensities on autoradiogram were analyzed with Image-Quant (Molecular Dynamics, Sunnyvale, Calif.) and normalized by nonphosphorylated ERK, nonphosphorylated Akt or β-actin in the same sample, respectively.

Akt = Akt phosphorylation and total Akt, Western blotting; type: cell-based, human
Experimental: Western Blotting Analysis: Antibodies were purchased from Cell Signaling Technology (Beverly, Mass.) and they were used according to manufacturer's instructions. Cultured cells after treatment were washed with cold PBS three times, and the 300 μl of sample lysis buffer (62.5 mM Tris-HCl pH 6.8, 2% w/v SDS, 10% glycerol, 200 mM dithiothreitol, and protease cocktails) was added to each plate. Cell lysates were centrifuged at 12,000×g for 10 minutes. The supernatants were saved for analysis. Protein concentration was determined by bicinchoninic acid (BCA) protein assay kit (Sigma, St. Louis, Mo.). Samples containing 50 μg of protein in loading sample buffer were boiled for 5 minutes and loaded on 12% Tris-Glycine SDS-PAGE gels. Gels were run at 120 V for approximately two hours and transferred overnight at 20 V to nitrocellulose membranes. Membranes were incubated with the blocking buffer containing 5% non-fat mile in PBST (0.1% Tween-20 in PBS) for one hour, washed with PBST and incubated overnight with the primary antibody against either phosphorylated ERK or phosphorylated Akt (Ser473). The membranes were washed in PBST and proteins were visualized using horseradish peroxidase (HRP)-conjugated anti-rabbit IgG and the enhanced chemiluminescence (Amersham Bioscience, Piscataway, N.J.). The membranes were stripped using a standard stripping solution (62.5 mM Tris-HCl, pH 6.8, 2% SDS and 100 mM β-mercaptoethanol) at 50° C., and reprobed with nonphosphorylated ERK, nonphosphorylated Akt and β-actin antibodies. Phosphorylated ERK and phosphorylated Akt protein band intensities on autoradiogram were analyzed with Image-Quant (Molecular Dynamics, Sunnyvale, Calif.) and normalized by nonphosphorylated ERK, nonphosphorylated Akt or β-actin in the same sample, respectively.

mtALDH = biological target: T1, mtALDH; test: mtALDH activity assay (NADH formation at 340 nm); type: cell-based; conditions: cell homogenate supernatant, p<0.01, n=6
Experimental: mtALDH Activity Assay: mtALDH activity was measured as described previously (9). Neo-A549 and mtALDH A549 cells cultured on plates were collected in buffer of 50 mM Tris-HCl, pH 8.5. Resuspended cells were sonicated at setting 4 for 5 seconds by VirSonic sonicator from VirTis (Gardiner, N.Y.). The cell homogenates were centrifuged at 12,000×g for 10 minutes. The supernatants were saved and protein concentration was determined. Mitochondria were isolated from cultured cells using a mitochondria isolation kit from Pierce (Rockford, Ill.). The enzyme activity assay was carried out in 100 μL of 50 mM Tris-HCl, pH 8.5 containing 50 μg prepared protein, 15 μM propionaldehyde, 1 mM NAD and 1 mM 4-methylpyrazole. The ALDH activity was determined by spectrometer for NADH formation at 340 nm.

[7] = 48-hour hyperoxic exposure (95% O2, 5% CO2)

Molecule | necrotic cell death (percentage of stained cells to total cells) (Neo-A549 cells [1]; [7]) [%] | necrotic cell death (percentage of stained cells to total cells) (Neo-A549 cells [1]; 48-hour normoxic exposure) [%] | necrotic cell death (percentage of stained cells to total cells) (mtALDH-A549 cells [2]; [7]) [%] | necrotic cell death (percentage of stained cells to total cells) (mtALDH-A549 cells [2]; 48-hour normoxic exposure) [%] | necrotic cell death (LDH cytotoxicity) (mtALDH-A549 cells [3]) [%] | necrotic cell death (LDH cytotoxicity) (Neo-A549 cells [4]) [%] | necrotic cell death, trypan blue exclusion (mtALDH-A549 cells [2]; 24-hour hyperoxic exposure, Neo-A549 25.3%) [%] | necrotic cell death, trypan blue exclusion (mtALDH-A549 cells [2]; 48-hour hyperoxic exposure, Neo-A549 50.5%) [%] | necrotic cell death, trypan blue exclusion (mtALDH-A549 cells [2]; 72-hour hyperoxic exposure, Neo-A549 52.4%) [%] | apoptotic cell death (Annexin V positive cells) (mtALDH-A549 cells [5]) [%] | intracellular ROS level (H2DCFDA staining) (mtALDH-A549 cells [6]; 24-hour hyperoxia) | intracellular ROS level versus Neo-A549 cells (mtALDH-A549 cells [6]; 24-hour hyperoxia, p<0.001) | mitochondrial ROS level (dihydrorhodamine 123) versus Neo-A549 cells (mtALDH-A549 cells [6]; 24-hour hyperoxic exposure, p<0.001) | ERK phosphorylation in mtALDH-A549 cells compared to Neo-A549 cells (ERK) | Akt phosphorylation in mtALDH-A549 cells versus Neo-A549 cells (Akt; 0, 24 and 48-hour hyperoxic exposure) | phosphorylated Akt level in mtALDH-A549 cells versus Neo-A549 cells (Akt; first 24-hour culture under normoxic conditions) | total Akt in mtALDH-A549 cells compared to Neo-A549 cells (Akt; prior to hyperoxic treatment (0 hour)) | total mtALDH activity in mtALDH-A549 cells compared to Neo-A549 cells (mtALDH)
O=c1cc(N2CCOCC2)oc2c(-c3ccccc3)cccc12 [LY294002] | 86.6 | 9.0 | 28.0 | 4.3 | – | – | – | – | – | – | – | – | – | – | – | – | – | –
N#CC(=C(/N)Sc1ccccc1N)/C(C#N)=C(\N)Sc1ccccc1N [U0126] | 44.5 | 12.6 | 26.0 | 11.6 | 9.4 | 14.1 | – | – | – | – | – | – | – | – | – | – | – | –
B1 | – | – | – | – | – | – | 6.5 | 9.1 | 15.1 | 0.48 | increased only approximately two fold | significantly decreased | significantly decreased | seven-fold increase | 2-3 times | two-fold higher | about 1.8 fold | increased more than two fold
